Experimental findings from paper PMC2807882, “Conservation of DNA-binding specificity and oligomerisation properties within the p53 family” are described below.

Data set [1] has as its target T1, Drp53 (Danio rerio, UniProt P79734 1-373).
T1 sequence: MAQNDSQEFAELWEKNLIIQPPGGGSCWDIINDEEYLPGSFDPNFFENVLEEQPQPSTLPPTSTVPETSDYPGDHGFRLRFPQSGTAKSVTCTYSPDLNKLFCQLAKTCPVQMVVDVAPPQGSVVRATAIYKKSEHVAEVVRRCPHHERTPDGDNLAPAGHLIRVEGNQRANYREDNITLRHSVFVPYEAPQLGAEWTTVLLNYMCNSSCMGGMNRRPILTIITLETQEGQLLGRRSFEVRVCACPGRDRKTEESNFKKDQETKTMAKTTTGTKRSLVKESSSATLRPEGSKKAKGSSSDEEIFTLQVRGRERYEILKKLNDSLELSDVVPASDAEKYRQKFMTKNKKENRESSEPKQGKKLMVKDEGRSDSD
Nature of the data set: anisotropy competition; 25 mM NaPi, 225 mM NaCl, 10% v/v glycerol, 5 mM DTT, 0.2 mg/mL BSA, 22°C; 20 nM labelled DNA; pH not stated for the binding assay. Conditions: protein: recombinant; tags: N-terminal 6xHis-lipoyl-TEV tag, cleaved; chain copies: 4.

Data set [2] addresses T2, p73CT (Homo sapiens, UniProt O15350 104-383).
T2 sequence: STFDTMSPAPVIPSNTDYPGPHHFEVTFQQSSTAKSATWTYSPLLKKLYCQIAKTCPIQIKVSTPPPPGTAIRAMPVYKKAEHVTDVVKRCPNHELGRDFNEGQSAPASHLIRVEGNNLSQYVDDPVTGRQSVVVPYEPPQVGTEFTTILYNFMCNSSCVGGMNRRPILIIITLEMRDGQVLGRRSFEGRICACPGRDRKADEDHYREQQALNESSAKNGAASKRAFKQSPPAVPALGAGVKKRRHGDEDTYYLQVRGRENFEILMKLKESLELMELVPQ
The description is as above. Conditions: protein: recombinant; tags: N-terminal 6xHis-lipoyl-TEV tag, cleaved; chain copies: 4.

In data set [3] the target is T1, Drp53. The experiment in a line: fluorescence anisotropy, direct; 25 mM NaPi, 225 mM NaCl, 10% v/v glycerol, 5 mM DTT, 0.2 mg/mL BSA, 22°C; 20 nM labelled DNA; pH not stated for the binding assay. Conditions: protein: recombinant; tags: N-terminal 6xHis-lipoyl-TEV tag, cleaved; chain copies: 4; label: 5'-Alexa488. In general terms: Fluorescence polarisation rises when a labelled molecule tumbles more slowly, as on binding a larger partner.

The next data set addresses T3, ΔNp63γ (Homo sapiens, UniProt Q9H3D4-6 1-393).
T3 sequence: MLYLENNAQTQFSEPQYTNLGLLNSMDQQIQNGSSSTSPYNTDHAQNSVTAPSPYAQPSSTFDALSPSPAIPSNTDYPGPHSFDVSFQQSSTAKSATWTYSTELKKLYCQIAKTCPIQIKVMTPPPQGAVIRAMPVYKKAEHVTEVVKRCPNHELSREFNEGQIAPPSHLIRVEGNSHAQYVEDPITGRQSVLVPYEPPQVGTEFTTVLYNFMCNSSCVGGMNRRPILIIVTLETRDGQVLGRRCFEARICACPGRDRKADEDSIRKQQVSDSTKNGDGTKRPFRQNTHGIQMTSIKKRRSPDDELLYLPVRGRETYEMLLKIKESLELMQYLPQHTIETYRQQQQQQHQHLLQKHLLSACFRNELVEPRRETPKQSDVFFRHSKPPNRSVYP
The data set is described as above. Conditions: protein: recombinant; tags: N-terminal 6xHis-lipoyl-TEV tag, cleaved; chain copies: 4; label: 5'-Alexa488.

The target in the next data set is T4, ΔNp73β (Homo sapiens, UniProt O15350-9 1-450).
T4 sequence: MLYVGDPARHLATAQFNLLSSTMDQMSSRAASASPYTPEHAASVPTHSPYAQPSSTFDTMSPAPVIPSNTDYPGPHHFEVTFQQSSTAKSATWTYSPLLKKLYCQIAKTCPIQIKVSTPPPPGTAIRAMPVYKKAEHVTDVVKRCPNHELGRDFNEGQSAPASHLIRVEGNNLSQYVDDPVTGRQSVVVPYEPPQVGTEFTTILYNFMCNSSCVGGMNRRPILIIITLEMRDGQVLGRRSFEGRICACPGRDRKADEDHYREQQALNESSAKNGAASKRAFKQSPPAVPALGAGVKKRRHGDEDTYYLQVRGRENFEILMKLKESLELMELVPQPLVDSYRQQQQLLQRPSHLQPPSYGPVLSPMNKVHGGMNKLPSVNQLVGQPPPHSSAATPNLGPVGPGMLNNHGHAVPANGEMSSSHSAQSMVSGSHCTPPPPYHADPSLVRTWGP
Described as above. Conditions: protein: recombinant; tags: N-terminal 6xHis-lipoyl-TEV tag, cleaved; chain copies: 4; label: 5'-Alexa488.

Data set [4] has as its target T2, p73CT. The data set is described as above. Conditions: protein: recombinant; tags: N-terminal 6xHis-lipoyl-TEV tag, cleaved; chain copies: 4; label: 5'-Alexa488.
The target of the next data set is T5, ΔNp63β (Homo sapiens, UniProt Q9H3D4-4 1-461).
T5 sequence: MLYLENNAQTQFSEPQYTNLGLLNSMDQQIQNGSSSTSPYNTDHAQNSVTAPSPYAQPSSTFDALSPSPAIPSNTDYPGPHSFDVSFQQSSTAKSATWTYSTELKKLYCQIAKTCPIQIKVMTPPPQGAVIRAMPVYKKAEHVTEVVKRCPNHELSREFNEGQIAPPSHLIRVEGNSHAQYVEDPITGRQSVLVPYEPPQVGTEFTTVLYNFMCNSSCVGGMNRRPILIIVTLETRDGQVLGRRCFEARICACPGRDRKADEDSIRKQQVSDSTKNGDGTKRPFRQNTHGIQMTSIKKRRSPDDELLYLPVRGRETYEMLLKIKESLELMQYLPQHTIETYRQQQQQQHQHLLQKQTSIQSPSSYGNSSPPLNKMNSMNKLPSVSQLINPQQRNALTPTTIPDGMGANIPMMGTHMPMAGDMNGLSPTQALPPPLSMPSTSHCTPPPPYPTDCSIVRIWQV
Described as above. Conditions: protein: recombinant; tags: N-terminal 6xHis-lipoyl-TEV tag, cleaved; chain copies: 4; label: 5'-Alexa488.

B1: Ref competitor (dsDNA)
DNA 1: CGCGGACATGTCCGGACATGTCCCGC
DNA 2: GCGGGACATGTCCGGACATGTCCGCG
For the molecule B1, the Kd was -7.42 log10(M) with Drp53 [1] and -6.83 log10(M) in the data set with p73CT [2].

B2: Ref_Alexa488 (dsDNA)
DNA 1: GGACATGTCCGGACATGTCC
DNA 2: GGACATGTCCGGACATGTCC
For the molecule B2, the Kd in the data set with Drp53 [3] was -7.2 ± 0.03 log10(M); with ΔNp63γ, -7.17 ± 0.02 log10(M); with ΔNp73β, -7.26 ± 0.02 log10(M); with p73CT [4] it was -6.62 ± 0.04 log10(M); with ΔNp63β, -7.13 ± 0.04 log10(M).
